In US20210308031:

How the values were obtained:
[1] = biological target: (Pro-Pro-Gly)10 peptide model substrate
[2] = biological target: Unhydroxylated collagen purified from strain PP434 (vector MMV411)

B1: P4HA and P4HB with the His tag, expressed separately (bidirectional), encoded by plasmid MMV503 (protein)
chain 1: HPGFFTSIGQMTDLIHTEKDLVTSLKDYIKAEEDKLEQIKKWAEKLDRLTSTATKDPEGFVGHPVNAFKLMKRLNTEWSELENLVLKDMSDGFISNLTIQRQYFPNDEDQVGAAKALLRLQDTYNLDTDTISKGDLPGVKHKSFLTVEDCFELGKVAYTEADYYHTELWMEQALRQLDEGEVSTVDKVSVLDYLSYAVYQQGDLDKALLLTKKLLELDPEHQRANGNLKYFEYIMAKEKDANKSSSDDQSDQKTTLKKKGAAVDYLPERQKYEMLCRGEGIKMTPRRQKKLFCRYHDGNRNPKFILAPAKQEDEWDKPRIIRFHDIISDAEIEVVKDLAKPRLRRATISNPITGDLETVHYRISKSAWLSGYENPVVSRINMRIQDLTGLDVSTAEELQVANYGVGGQYEPHFDFARKDEPDAFKELGTGNRIATWLFYMSDVLAGGATVFPEVGASVWPKKGTAVFWYNLFASGEGDYSTRHAACPVLVGNKWVSNKWLHERGQEFRRPCTLSELE
chain 2: APDEEDHVLVLHKGNFDEALAAHKYLLVEFYAPWCGHCKALAPEYAKAAGKLKAEGSEIRLAKVDATEESDLAQQYGVRGYPTIKFFKNGDTASPKEYTAGREADDIVNWLKKRTGPAASTLSDGAAAEALVESSEVAVIGFFKDMESDSAKQFFLAAEVIDDIPFGITSNSDVFSKYQLDKDGVVLFKKFDEGRNNFEGEVTKEKLLDFIKHNQLPLVIEFTEQTAPKIFGGEIKTHILLFLPKSVSDYEGKLSNFKKAAESFKGKILFIFIDSDHTDNQRILEFFGLKKEECPAVRLITLEEEMTKYKPESDELTAEKITEFCHRFLEGKIKPHLMSQELPDDWDKQPVKVLVGKNFEEVAFDEKKNVFVEFYAPWCGHCKQLAPIWDKLGETYKDHENIVIAKMDSTANEVEAVKVHSFPTLKFFPASADRTVIDYNGERTLDGFKKFLESGGQDGAGDDDDLEDLEEAEEPDLEEDDDQKAVKDELHHHHHH
- alpha-ketoglutaric acid consumption over time [1]: The P4HA and P4HB enzymatic activity from PP548 were confirmed by the same assay as above
- % Hydroxyproline (in vitro hydroxylation, 32 C, 1 hour); enzyme from strain PP636 [2]: 0.9%
